Values quoted from earlier work as cited in paper PMC9836287.

Target: CEP250 (Homo sapiens) (UniProt Q9BV73)
Chain of UniProt Q9BV73 (Q9BV73 whole entry): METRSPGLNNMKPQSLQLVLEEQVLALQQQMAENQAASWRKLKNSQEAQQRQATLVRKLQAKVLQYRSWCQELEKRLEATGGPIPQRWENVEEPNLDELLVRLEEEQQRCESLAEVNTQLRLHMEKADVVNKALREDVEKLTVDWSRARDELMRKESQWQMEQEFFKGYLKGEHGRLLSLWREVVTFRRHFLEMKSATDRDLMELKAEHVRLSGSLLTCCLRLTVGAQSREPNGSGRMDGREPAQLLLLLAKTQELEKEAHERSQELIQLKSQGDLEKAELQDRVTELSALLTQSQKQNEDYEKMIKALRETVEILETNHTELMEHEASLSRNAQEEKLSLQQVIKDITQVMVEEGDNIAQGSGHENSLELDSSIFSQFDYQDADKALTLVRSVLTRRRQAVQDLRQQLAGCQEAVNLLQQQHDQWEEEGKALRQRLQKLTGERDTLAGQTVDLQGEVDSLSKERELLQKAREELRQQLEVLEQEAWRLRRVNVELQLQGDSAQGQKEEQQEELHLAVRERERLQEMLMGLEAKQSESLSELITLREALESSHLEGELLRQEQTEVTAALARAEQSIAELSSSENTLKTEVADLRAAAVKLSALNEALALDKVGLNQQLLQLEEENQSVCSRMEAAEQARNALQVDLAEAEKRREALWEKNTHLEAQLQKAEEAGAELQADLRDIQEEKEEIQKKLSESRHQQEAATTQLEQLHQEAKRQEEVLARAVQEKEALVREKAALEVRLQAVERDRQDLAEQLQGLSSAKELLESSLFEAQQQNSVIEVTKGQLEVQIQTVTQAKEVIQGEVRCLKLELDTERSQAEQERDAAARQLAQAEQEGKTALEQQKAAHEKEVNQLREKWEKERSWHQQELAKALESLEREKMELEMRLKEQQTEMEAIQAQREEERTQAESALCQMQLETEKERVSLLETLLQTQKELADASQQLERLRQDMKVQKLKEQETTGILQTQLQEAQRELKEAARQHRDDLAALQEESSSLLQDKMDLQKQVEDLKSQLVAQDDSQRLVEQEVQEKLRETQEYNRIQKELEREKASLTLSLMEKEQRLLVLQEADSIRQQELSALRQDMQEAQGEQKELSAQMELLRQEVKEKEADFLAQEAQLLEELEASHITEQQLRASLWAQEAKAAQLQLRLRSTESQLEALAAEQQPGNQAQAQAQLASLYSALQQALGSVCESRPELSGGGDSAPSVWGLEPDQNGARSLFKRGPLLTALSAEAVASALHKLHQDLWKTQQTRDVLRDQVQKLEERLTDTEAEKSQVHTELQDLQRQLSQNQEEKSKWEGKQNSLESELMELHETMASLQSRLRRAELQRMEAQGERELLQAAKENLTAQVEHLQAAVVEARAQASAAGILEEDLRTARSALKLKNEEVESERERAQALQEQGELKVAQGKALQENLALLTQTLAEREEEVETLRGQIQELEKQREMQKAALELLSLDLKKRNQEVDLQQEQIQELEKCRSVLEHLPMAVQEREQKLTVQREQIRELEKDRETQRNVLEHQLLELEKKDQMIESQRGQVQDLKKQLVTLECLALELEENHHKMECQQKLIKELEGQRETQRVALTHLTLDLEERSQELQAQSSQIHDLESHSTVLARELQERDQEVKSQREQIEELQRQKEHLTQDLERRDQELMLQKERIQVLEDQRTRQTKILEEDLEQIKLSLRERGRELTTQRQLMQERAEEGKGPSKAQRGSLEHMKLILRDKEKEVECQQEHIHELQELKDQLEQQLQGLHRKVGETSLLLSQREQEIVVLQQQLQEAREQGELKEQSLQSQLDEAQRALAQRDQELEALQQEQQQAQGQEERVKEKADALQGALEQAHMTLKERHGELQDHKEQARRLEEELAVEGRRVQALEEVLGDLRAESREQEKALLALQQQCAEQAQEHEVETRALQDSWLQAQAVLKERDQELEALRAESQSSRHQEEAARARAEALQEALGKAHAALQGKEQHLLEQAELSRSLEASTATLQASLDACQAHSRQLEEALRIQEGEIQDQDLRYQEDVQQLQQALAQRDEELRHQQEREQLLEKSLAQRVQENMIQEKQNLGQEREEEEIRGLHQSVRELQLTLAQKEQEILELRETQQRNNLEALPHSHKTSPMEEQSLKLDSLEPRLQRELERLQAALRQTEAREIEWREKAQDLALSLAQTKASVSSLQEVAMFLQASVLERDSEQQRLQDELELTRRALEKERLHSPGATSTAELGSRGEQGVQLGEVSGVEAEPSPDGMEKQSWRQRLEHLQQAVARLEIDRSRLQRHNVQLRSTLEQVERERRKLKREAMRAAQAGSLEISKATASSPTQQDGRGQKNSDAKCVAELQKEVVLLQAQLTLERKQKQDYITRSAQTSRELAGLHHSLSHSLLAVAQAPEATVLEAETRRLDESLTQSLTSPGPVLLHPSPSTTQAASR

- Kd: 0.04 µM
Substance: FKBP12 (from UniProt P62942)
